{"source": "paper PMC3731240", "experiment_in_all_cases": "SPR", "key": {"[1]": {"biological_target": "Ghfp^M4 (R288H) (Neisseria gonorrhoeae strain FA1090)"}, "[2]": {"biological_target": "Ghfp^M4–5 (R288H and D318G) (Neisseria gonorrhoeae strain FA1090)"}, "[3]": {"biological_target": "factor H binding protein (fHbp) V3.45, recombinant, wild type (Neisseria meningitidis) (UniProt E6MV22)"}}}
{"substance": "complement control protein (CCP) domains 6 and 7 of fH (fH6–7) (domain or fragment)", "values": [{"measurement": "Kd", "setting": "[1]", "result": 16, "unit": "nM"}, {"measurement": "Kd", "setting": "[2]", "result": 2, "unit": "nM"}, {"measurement": "Kd", "setting": "[3]", "result": 1, "unit": "nM"}]}
